{
  "source": "paper PMC8794075",
  "about": "(Emerging Microbes & Infections, 2022)",
  "target": "prefusion-stabilized SARS-CoV-2 S-trimer protein (wild type, Wuhan-Hu-1) (SARS-CoV-2, UniProt P0DTC2)",
  "assay": "cell-based or functional assay",
  "data": [
    {"binder": "MAb S3H3 (antibody, V domains shown) VH: QVQLQQPGAELVRPGASVKLSCKASGYSFTRFWMNWVKQRPGQGLEWIGMIHPSDSETRLNQKFKDKATLTVDKSSTTAYMQLSSPTSEDSAVYYCARKDYDYDAWFAYWGQGTLVTVSA VL: DIVLTQSPASLAVSLGQRATISCRASKSVSASVYSYMHWYQQKPGQPPKLLIYLASSLESGVPARFSGSGSGTDFTLNIHPVEEEDAATYYCHHSRELPPAFGGGTKLEIK", "values": [
      {"measurement": "IC50 of neutralisation of WT S pseudovirus", "value": 0.083, "unit": "µg/mL"}
    ]}
  ]
}
